Results as given in US20240247301A1, “DIAGNOSTIC ASSAY FOR CLASSIC INBORN GALACTOSEMIA” (Ohio State Innovation Foundation, priority 2022, published 2024).
Where “and” joins values, the source holds several entries; their conditions need not be identical. Equal entries are not always repeated.

System: O=P(O)(O)O[C@H]1O[C@H](CO)[C@@H](O)[C@H](O)[C@H]1O
Assay: YidA phosphatase activity (malachite green), dephosphorylation of Glc-1-P
Type: biochemical, Salmonella typhimurium
Excerpt: The sugar phosphate phosphatase produced from an engineered cell can be identical to a naturally occurring one, such as YidA or YihX, but placed within a cell in which it is not naturally produced. Examples of this approach are given throughout. The sequence for YidA from Salmonella typhimurium can be found, for example, in NC_492731.1. This sequence corresponds to SEQ ID NO: 1. The gene ID is 1255358. The sequence for YihX from Salmonella typhimurium can be found, for example, in NC_462906.1. This corresponds to SEQ ID NO: 2. The gene ID is 1255552. In one example, genes encoding these proteins can be placed within a cell in which it is not naturally occurring.
Nearly homogeneous recombinant Salmonella YidA by overexpressing it in E. coli SixPack cells were obtained (Lipinszki et al. 2018) (FIG. 3A). N-terminal fusions with a small ubiquitin-like modifier (SUMO) domain were engineered to enhance solubility (Marblestone et al. 2006) and a His6 tag to facilitate affinity purification (FIG. 3A). […] Since YidA is a Mg^2+-dependent phosphatase, its activity with Glc-1-P in the presence of 0-5 mM MgCl2 was first tested and determined that 3 mM MgCl2 was optimal (FIG. 5). […]

Salmonella typhimurium YidA, recombinant wild type, SEQ ID NO: 1 (Salmonella enterica subsp. enterica serovar Typhimurium str. LT2)
Km (other: mean ± SE of two independent trials, pH 8.0): 1340 ± 20 µM and 1350 ± 10 µM
Km (other: single trials, ± curve-fit error, pH 8, 37° C., 3 mM MgCl2, 37.0 °C): 1340 ± 300 µM and 1350 ± 300 µM
